This data set concerns the molecule itself. In words: atomic force microscopy (topography); peptide mixed at 5 mol% with plasma membrane lipid mixture, Langmuir-Blodgett monolayer compressed to 20 mN/m (liquid-expanded phase), transferred onto mica, imaged in air at room temperature, Peak Force mode.

B1: SARS-CoV-2 Spike fusion peptide FP2 (residues 835-856) (peptide)
peptide: KQYGDCLGDIAARDLICAQKFN
notes: Spike (S) glycoprotein of SARS-CoV-2, S2 subunit fusion domain, residues 835-856
As for B1, the binding result is listed as “binds”.

B2: SARS-CoV-2 Spike fusion peptide FP1 (residues 816-837) (peptide)
peptide: SFIEDLLFNKVTLADAGFIKQY
notes: Spike (S) glycoprotein of SARS-CoV-2, S2 subunit fusion domain, residues 816-837
With B2, the binding result is reported as “binds”.

For the origin of these results see PMC12830992, “Insights into the self-assembly and interaction of sars-cov-2 fusion peptides with biomimetic plasma membranes” (Nature Communications, 2025).
